From patent US5688671A, “Mutant aspartokinase gene” (Ajinomoto Co., Inc., priority 1993, dated 1997)

Experiments:
AK [1] = assay: AK enzyme activity and inhibition by lysine/threonine in cell-free extracts of AK-deficient Escherichia coli Gif106M1 transformants; format: biochemical, Corynebacterium glutamicum; settings: for Specific activity: Table 4; for 5 mM Lys + Thr (degree of desensitization of inhibition, activity-holding ratio): lysine 5 mM+threonine 5 mM; for 5 mM Lys + Thr (degree of desensitization of inhibition, activity-holding ratio) / 5 mM Lys (degree of desensitization of inhibition, activity-holding ratio) / 5 mM Thr (degree of desensitization of inhibition, activity-holding ratio): activity without addition = 100%, E. coli Gif106M1 extracts; for 5 mM Lys (degree of desensitization of inhibition, activity-holding ratio): lysine 5 mM; for 5 mM Thr (degree of desensitization of inhibition, activity-holding ratio): threonine 5 mM
Text: Bacteriol. 112, 84-92 (1972), Theze, J. et al., J. […] It is known that most of genes of bacteria belonging to the genus Corynebacterium are expressed in Escherichia coli. In addition, the AK gene was ligated at a position downstream from lac promoter on pHSG399. Thus it was postulated that the gene could be expressed in Escherichia coli. […] Thus it was confirmed that AK from the bacteria belonging to the genus Corynebacterium was expressed and operated in cells of Escherichia coli. Subsequently, cell-free extracts were prepared from bacterial cells, and the enzyme activity of AK was measured. Upon measurement of the enzyme activity of AK, various concentrations of lysine and threonine were added to enzyme reaction solutions to investigate the degree of inhibition (FIG. 2). […] (Ki value: 0.4 mM→5.0 mM). […] Cell-free extracts were prepared, and enzymes were analyzed.

aspartokinase = assay: Aspartokinase (AK) activity of cell-disrupted solutions of Corynebacterium glutamicum strains, with and without L-lysine/L-threonine; format: biochemical, Corynebacterium glutamicum (Brevibacterium lactofermentum); settings: for 2 mM Lys + Thr (desensitization degree of inhibition): 2 mM lysine + threonine; for 2 mM Lys + Thr (desensitization degree of inhibition) / 5 mM Lys (desensitization degree of inhibition) / Specific activity / 5 mM Thr (desensitization degree of inhibition): plasmids introduced into AJ12036; for 5 mM Lys (desensitization degree of inhibition): lysine 5 mM; for Specific activity: Table 5; for 5 mM Thr (desensitization degree of inhibition): threonine 5 mM
Text: When a wild type strain is used as a donor for the DNA fragment containing the AK gene, a DNA fragment containing a wild type AK gene can be obtained. The DNA fragment containing the gene for AK in which synergistic feedback inhibition by L-lysine and L-threonine is substantially desensitized can be obtained by using a mutant strain in which synergistic feedback inhibition on the AK activity by L-lysine and L-threonine is substantially desensitized. The mutant strain can be obtained, for example, from a group of cells subjected to an ordinary mutation treatment, ultraviolet light irradiation, or a treatment with a mutating agent such as N-methyl-N'-nitro-N-nitrosoguanidine (NTG). The AK activity can be measured by using a method described in Miyajima, R. et al., The Journal of Biochemistry (1968), 63(2), 139-148.
Strains were prepared by introducing the wild type AK plasmid p399AKYB and the mutant AK plasmid p399AK9B respectively into AJ12036 strain (FERM P-7559) as a wild type strain of Corynebacterium glutamicum (Brevibacterium lactofermentum). The genes were introduced into Corynebacterium by means of an electric pulse method. The aspartokinase activity was measured for Corynebacterium glutamicum (Brevibacterium lactofermentum) AJ12036 strain as a host, AJ12690 strain harboring the wild type AK plasmid, and AJ12691 (FERM P12918) strain harboring the mutant AK plasmid. The activity was measured in accordance with an ordinary method (see Miyajima, R. et al., The Journal of Biochemistry (1968) 63(2), 139-148). […]
Strains were prepared by introducing 8 kinds of the plasmids shown in Table 3 into AJ12036 strain (FERM P-7559) as a wild type strain of Corynebacterium glutamicum (Brevibacterium lactofermentum) in the same manner as Example 3. The AK activity was measured for each of the strains. […] The desensitization degree of inhibition by lysine and/or threonine was similar to those in Example 6.

[2] = system: Corynebacterium glutamicum (Brevibacterium lactofermentum) AJ12036; assay: L-lysine productivity evaluated by cultivation in production medium; format: cell-based; settings: plasmids introduced into AJ12036; cultivation as in Example 3
Method: The lysine productivity was evaluated by cultivation for the wild type strain AJ12036, the wild type AK plasmid-harboring strain AJ12690, and the mutant AK plasmid-harboring strain AJ12691 (FERM P-12918). The evaluation by cultivation was performed by inoculating the strains to a production medium (containing glucose 100 g, (NH4)2 SO4 55 g, KH2 PO4 1 g, MgSO4.7H2 O 1 g, soybean protein acid hydrolysate "Mamenou" (product of Ajinomoto Co., Ltd., trade name) 50 ml, FeSO4.7H2 O 10 mg, MnSO4.4H2 O 10 mg, nicotinic acid amide 5 mg, and CaCO3 50 g in 1 l of pure water, pH 8.0), and cultivating them with reciprocatory shaking at 31.5° C. for 72 hours. […] The plasmid-holding ratio upon completion of the cultivation was measured by using an index of chloramphenicol resistance as a drug resistance marker of the plasmid.
The lysine productivity was further evaluated by cultivation for the 9 kinds of these strains by using a method similar to that in Example 3.

AK [3] = assay: Thermal stability of AK, treatment at 55° C. for 1.5 hour; format: biochemical, Corynebacterium glutamicum
Method: The activity-holding ratio after a treatment at 55° C. for 90 minutes is indicated by %.
Thermal stability was investigated as an index of stability of the enzyme structure constructed by the introduction of mutation. The treatment condition was set at 55° C. for 1.5 hour in which the activity of the wild type AK was about 80%.

[4] = E. coli Gif106M1 cell-free extracts

| Molecule | concerted inhibition by lysine+threonine (AK [1]; [4]) | degree of activation by threonine (AK [1]; [4]) | inhibition by lysine alone as compared with the wild type (AK [1]; [4]) | Specific activity (AK [1]; [4]) | specific activity relative to that of the wild type (AK [1]; fraction of wild type specific activity) | 5 mM Lys + Thr (degree of desensitization of inhibition, activity-holding ratio) (AK [1]) | 5 mM Lys (degree of desensitization of inhibition, activity-holding ratio) (AK [1]) | 5 mM Thr (degree of desensitization of inhibition, activity-holding ratio) (AK [1]) | 2 mM Lys + Thr (desensitization degree of inhibition) (aspartokinase) | 5 mM Lys (desensitization degree of inhibition) (aspartokinase) | degree of desensitization of inhibition, ranking (aspartokinase; lysine alone, threonine alone and concerted inhibition, plasmids in AJ12036) | Specific activity (aspartokinase) | 5 mM Thr (desensitization degree of inhibition) (aspartokinase) | Lys--HCl [2] | AK activity (AK [1]; [4]) | thermal stability compared with the wild type (AK [3]; FIG. 6) | inhibition by threonine desensitized (AK [1]; [4]) | activity after thermal treatment (activity-holding ratio) (AK [3]) |
| --- | --- | --- | --- | --- | --- | --- | --- | --- | --- | --- | --- | --- | --- | --- | --- | --- | --- | --- |
| Pro: mutant aspartokinase 279 Ala→Pro, plasmid p399AKAP (p399AKAPB) (protein, UniProt P26512 1-421, looked up, variant A279P) Aspartokinase: MALVVQKYGGSSLESAERIRNVAERIVATKKAGNDVVVVCSAMGDTTDELLELAAAVNPVPPAREMDMLLTAGERISNALVAMAIESLGAEAQSFTGSQAGVLTTERHGNARIVDVTPGRVREALDEGKICIVAGFQGVNKETRDVTTLGRGGSDTTAVALAAALNADVCEIYSDVDGVYTADPRIVPNAQKLEKLSFEEMLELAAVGSKILVLRSVEYARAFNVPLRVRSSYSNDPGTLIAGSMEDIPVEEAVLTGVATDKSEAKVTVLGISDKPGEPAKVFRALADAEINIDMVLQNVSSVEDGTTDITFTCPRSDGRRAMEILKKLQVQGNWTNVLYDDQVGKVSLVGAGMKSHPGVTAEFMEALRDVNVNIELISTSEIRISVLIREDDLDAAARALHEQFQLGGEDEAVVYAGTGR | desensitized | not less than 120% | mitigated | 2.8 mU/mg protein | about 1/5 | 103.8% | 76.9% | 126.9% | 85.2% | 77.5% | highest degree of desensitization of inhibition | 125.0 mU/mg protein | 123.2% | 25.11 g/L | – | – | – | – |
| Asp: mutant aspartokinase 279 Ala→Asp, plasmid p399AKAD (protein, UniProt P26512 1-421, looked up, variant A279D) Aspartokinase: MALVVQKYGGSSLESAERIRNVAERIVATKKAGNDVVVVCSAMGDTTDELLELAAAVNPVPPAREMDMLLTAGERISNALVAMAIESLGAEAQSFTGSQAGVLTTERHGNARIVDVTPGRVREALDEGKICIVAGFQGVNKETRDVTTLGRGGSDTTAVALAAALNADVCEIYSDVDGVYTADPRIVPNAQKLEKLSFEEMLELAAVGSKILVLRSVEYARAFNVPLRVRSSYSNDPGTLIAGSMEDIPVEEAVLTGVATDKSEAKVTVLGISDKPGEDAKVFRALADAEINIDMVLQNVSSVEDGTTDITFTCPRSDGRRAMEILKKLQVQGNWTNVLYDDQVGKVSLVGAGMKSHPGVTAEFMEALRDVNVNIELISTSEIRISVLIREDDLDAAARALHEQFQLGGEDEAVVYAGTGR | – | – | – | 1.5 mU/mg protein | – | – | – | – | – | – | – | – | – | – | inactivated | – | – | – |
| Ser: mutant aspartokinase 279 Ala→Ser, plasmid p399AKAS (p399AKASB) (protein, UniProt P26512 1-421, looked up, variant A279S) Aspartokinase: MALVVQKYGGSSLESAERIRNVAERIVATKKAGNDVVVVCSAMGDTTDELLELAAAVNPVPPAREMDMLLTAGERISNALVAMAIESLGAEAQSFTGSQAGVLTTERHGNARIVDVTPGRVREALDEGKICIVAGFQGVNKETRDVTTLGRGGSDTTAVALAAALNADVCEIYSDVDGVYTADPRIVPNAQKLEKLSFEEMLELAAVGSKILVLRSVEYARAFNVPLRVRSSYSNDPGTLIAGSMEDIPVEEAVLTGVATDKSEAKVTVLGISDKPGESAKVFRALADAEINIDMVLQNVSSVEDGTTDITFTCPRSDGRRAMEILKKLQVQGNWTNVLYDDQVGKVSLVGAGMKSHPGVTAEFMEALRDVNVNIELISTSEIRISVLIREDDLDAAARALHEQFQLGGEDEAVVYAGTGR | enhanced | – | equivalent to that in the wild type | 8.2 mU/mg protein | – | 18.4% | 52.6% | 131.6% | 37.0% | 55.0% | – | 406.8 mU/mg protein | 114.4% | 5.72 g/L | – | – | – | – |
| Thr: mutant aspartokinase 279 Ala→Thr from AJ3463, plasmid p399AK9 (p399AK9B); SEQ ID NO: 4 and 6 (protein) MEEAVLTGVATDKSEAKVTVLGISDKPGETAKVFRALADAEINIDMVLQNVSSVEDGTTDITFTCPRADGRRAMEILKKLQVQGNWTNVLYDDQVGKVSLVGAGMKSHPGVTAEFMEALRDVNVNIELISTSEIRISVLIREDDLDAAARALHEQFQLGGEDEAVVYAGTGR | – | – | little improvement | 12.9 mU/mg protein | – | 50.4% | 47.0% | 103.5% | 78.3% | 58.7% | – | 374.4 mU/mg protein | 109.1% | 24.25 g/L | – | higher stability than that of the wild type | 100% | – |
| Wild type: wild type aspartokinase of Corynebacterium glutamicum ATCC 13869, plasmid p399AKY (p399AKYB); SEQ ID NO: 3 and 5 (protein) MEEAVLTGVATDKSEAKVTVLGISDKPGEAAKVFRALADAEINIDMVLQNVSSVEDGTTDITFTCPRADGRRAMEILKKLQVQGNWTNVLYDDQVGKVSLVGAGMKSHPGVTAEFMEALRDVNVNIELISTSEIRISVLIREDDLDAAARALHEQFQLGGEDEAVVYAGTGR | – | – | – | 15.3 mU/mg protein | – | 9.2% | 42.3% | 62.3% | 6.2% | 52.7% | – | 316.4 mU/mg protein | 86.8% | 0.00 g/L | – | – | – | about 80% |
